Experiments:
EB1 = target: T1, EB1 (UniProt Q15691 2-268); assay: anti-FLAG co-immunoprecipitation, immunoblot
T1 construct: Endogenous protein detected by immunoblot or mass spectrometry; also called endogenous EB1
T1 sequence (looked up): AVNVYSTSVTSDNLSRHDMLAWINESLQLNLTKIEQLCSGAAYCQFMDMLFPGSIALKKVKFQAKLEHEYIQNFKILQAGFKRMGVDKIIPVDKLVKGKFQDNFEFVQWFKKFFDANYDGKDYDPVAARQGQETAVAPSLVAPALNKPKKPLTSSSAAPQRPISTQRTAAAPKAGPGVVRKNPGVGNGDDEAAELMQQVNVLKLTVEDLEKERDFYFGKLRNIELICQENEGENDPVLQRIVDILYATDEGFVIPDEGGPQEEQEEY
Method: (§1) After anti-FLAG immunoprecipitation, the immunoprecipitates and inputs were probed on immunoblots. […] Scale bars, 5 μm.
(§2) Anti-FLAG immunoprecipitation was performed using anti-FLAG-coupled beads (M2, Sigma) in cell extracts prepared with a lysis buffer (20 mM Tris-HCl, pH7.4, 150 mM NaCl, 1 mM EDTA, 1% Triton X-100, 1 mM dithiothreitol, and the Protease Inhibitor Cocktail). Immunoprecipitated proteins were detected by immunoblotting.

AKAP450 = target: T2, AKAP450 (UniProt Q99996 1-3907, limits assumed); assay: anti-FLAG co-immunoprecipitation from HEK293T, immunoblot
T2 construct: Endogenous protein detected by immunoblot; also called AKAP350; CG-NAP
Method: The immunoprecipitated proteins and inputs were analyzed by immunoblotting and quantified. […] Data shown are means±S.D. from three independent experiments. […] The arrow indicates a transfected cell. Boxed areas are enlarged. Scale bars, 5 μm.
as §2

GFP-EB3 = target: T3, GFP-EB3 (UniProt Q9UPY8 1-281); assay: anti-FLAG co-immunoprecipitation from HEK293T, anti-GFP immunoblot
T3 construct: not shown: GFP tag
Method: as §1, §2

T3 sequence (Q9UPY8 whole entry): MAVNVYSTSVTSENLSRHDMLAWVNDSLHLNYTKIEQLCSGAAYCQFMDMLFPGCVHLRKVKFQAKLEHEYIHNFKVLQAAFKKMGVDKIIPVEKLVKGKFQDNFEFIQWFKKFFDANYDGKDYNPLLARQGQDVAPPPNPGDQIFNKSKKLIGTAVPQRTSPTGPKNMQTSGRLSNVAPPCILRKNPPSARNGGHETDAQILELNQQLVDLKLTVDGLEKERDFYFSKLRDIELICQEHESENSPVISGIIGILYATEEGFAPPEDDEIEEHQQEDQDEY
T2 sequence (Q99996 whole entry): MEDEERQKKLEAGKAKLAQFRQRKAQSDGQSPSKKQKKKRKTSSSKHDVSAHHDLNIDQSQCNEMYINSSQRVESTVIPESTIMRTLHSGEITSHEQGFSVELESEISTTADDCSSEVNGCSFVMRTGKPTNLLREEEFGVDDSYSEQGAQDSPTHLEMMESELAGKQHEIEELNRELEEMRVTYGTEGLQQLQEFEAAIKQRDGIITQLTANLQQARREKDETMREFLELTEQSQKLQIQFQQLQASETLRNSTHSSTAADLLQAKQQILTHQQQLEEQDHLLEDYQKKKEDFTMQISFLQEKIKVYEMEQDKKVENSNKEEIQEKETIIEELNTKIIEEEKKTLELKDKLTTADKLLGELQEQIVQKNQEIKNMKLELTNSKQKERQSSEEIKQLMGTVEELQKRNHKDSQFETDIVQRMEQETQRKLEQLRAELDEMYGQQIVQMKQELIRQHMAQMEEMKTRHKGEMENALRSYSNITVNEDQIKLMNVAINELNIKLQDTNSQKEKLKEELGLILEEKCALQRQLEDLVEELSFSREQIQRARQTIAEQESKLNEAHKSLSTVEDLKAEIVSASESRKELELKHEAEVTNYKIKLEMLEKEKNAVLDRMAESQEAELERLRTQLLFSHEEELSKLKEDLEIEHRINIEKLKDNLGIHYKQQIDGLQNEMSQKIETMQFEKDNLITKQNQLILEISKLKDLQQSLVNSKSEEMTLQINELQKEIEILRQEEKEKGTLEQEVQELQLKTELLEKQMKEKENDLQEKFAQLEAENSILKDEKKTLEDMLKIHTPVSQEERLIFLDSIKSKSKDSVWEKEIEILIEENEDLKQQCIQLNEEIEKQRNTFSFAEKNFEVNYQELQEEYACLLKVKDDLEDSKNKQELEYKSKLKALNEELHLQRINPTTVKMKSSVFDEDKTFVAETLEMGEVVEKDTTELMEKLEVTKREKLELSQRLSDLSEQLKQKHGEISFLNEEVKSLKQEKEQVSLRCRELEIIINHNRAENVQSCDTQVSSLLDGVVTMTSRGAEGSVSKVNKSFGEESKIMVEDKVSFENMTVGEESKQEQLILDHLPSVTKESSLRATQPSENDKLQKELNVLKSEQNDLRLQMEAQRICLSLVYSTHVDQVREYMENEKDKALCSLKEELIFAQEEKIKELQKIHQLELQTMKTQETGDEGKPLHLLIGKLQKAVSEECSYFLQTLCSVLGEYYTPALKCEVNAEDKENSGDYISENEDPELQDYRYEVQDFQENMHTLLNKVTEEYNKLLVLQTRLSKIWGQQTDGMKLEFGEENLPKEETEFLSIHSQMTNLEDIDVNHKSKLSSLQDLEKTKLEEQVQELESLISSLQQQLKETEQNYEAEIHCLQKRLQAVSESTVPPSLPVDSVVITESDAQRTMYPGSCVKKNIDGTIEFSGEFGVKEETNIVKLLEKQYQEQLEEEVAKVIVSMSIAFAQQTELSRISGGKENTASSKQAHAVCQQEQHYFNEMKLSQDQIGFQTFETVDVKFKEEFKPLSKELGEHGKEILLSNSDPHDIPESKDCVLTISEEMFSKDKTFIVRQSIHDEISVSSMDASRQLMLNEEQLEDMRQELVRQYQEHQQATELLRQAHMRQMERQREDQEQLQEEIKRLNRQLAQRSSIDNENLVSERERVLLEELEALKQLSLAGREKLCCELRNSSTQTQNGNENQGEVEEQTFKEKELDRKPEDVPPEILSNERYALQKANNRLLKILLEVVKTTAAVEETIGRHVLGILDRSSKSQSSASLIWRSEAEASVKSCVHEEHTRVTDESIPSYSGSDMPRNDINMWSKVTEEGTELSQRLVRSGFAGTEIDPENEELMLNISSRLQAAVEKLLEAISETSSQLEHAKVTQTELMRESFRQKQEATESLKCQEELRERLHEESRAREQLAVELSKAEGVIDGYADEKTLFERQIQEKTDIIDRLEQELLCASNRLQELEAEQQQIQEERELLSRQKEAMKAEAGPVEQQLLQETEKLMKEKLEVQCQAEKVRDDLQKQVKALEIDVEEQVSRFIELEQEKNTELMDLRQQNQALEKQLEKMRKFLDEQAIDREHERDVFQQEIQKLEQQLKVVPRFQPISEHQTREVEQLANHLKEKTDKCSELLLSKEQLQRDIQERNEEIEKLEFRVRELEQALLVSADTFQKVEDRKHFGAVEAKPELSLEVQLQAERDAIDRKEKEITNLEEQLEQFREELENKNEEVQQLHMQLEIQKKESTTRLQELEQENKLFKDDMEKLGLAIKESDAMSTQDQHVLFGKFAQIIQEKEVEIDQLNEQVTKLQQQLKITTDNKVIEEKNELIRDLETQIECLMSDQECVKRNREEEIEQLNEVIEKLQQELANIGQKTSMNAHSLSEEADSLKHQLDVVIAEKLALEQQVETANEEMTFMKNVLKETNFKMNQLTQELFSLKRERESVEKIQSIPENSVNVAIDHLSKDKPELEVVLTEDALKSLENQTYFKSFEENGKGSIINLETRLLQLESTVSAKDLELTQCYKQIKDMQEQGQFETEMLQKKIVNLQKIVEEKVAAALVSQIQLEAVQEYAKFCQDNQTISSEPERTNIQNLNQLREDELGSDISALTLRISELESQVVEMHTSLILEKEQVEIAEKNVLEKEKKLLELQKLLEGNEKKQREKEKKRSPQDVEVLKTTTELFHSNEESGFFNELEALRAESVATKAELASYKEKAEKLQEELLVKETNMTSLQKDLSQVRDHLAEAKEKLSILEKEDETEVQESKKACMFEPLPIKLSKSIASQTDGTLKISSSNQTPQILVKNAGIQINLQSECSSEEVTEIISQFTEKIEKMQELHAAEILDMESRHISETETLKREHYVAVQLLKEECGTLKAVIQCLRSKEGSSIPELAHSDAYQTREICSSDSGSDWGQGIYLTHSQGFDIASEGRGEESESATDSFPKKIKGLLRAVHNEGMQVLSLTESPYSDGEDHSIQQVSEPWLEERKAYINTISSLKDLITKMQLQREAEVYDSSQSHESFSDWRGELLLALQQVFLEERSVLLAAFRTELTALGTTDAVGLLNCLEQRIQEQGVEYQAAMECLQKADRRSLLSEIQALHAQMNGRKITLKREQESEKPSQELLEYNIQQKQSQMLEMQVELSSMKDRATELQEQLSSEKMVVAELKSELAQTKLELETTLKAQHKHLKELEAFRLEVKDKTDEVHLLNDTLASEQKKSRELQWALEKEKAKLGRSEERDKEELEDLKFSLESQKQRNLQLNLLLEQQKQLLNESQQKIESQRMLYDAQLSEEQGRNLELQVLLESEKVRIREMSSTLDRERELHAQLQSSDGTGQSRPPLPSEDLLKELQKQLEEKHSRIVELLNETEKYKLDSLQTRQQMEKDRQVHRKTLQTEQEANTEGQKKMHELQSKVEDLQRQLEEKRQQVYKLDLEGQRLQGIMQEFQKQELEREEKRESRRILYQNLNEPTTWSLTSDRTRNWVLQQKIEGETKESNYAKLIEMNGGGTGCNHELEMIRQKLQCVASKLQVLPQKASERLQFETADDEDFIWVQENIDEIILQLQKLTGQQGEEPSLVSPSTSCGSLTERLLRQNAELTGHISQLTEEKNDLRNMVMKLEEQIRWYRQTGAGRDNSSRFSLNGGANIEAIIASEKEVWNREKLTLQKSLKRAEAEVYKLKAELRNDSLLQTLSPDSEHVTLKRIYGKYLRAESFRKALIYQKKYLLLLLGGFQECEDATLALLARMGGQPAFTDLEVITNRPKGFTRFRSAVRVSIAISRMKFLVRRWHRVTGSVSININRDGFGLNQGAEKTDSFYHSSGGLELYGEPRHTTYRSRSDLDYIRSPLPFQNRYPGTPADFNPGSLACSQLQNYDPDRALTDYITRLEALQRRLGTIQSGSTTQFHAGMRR

B1: FLAG-tagged MMG8 fragment 1-389 (L311A/P312A) (other)
chain: MKEICRICARELCGNQRRWIFHTASKLNLQVLLSHVLGKDVPRDGKAEFACSKCAFMLDRIYRFDTVIARIEALSIERLQKLLLEKDRLKFCIASMYRKNNDDSGAEIKAGNGTVDMSVLPDARYSALLQEDFAYSGFECWVENEDQIQEPHSCHGSEGPGNRPRRCRGCAALRVADSDYEAICKVPRKVARSISCGPSSRWSTSICTEEPALSEVGPPDLASTKVPPDGESMEEETPGSSVESLDASVQASPPQQKDEETERSAKELGKCDCCSDDQAPQHGCNHKLELALSMIKGLDYKPIQSPRGSRAAIPVKSSLPGAKPGPSMTDGVSSGFLNRSLKPLYKTPVSYPLELSDLQELWDDLCEDYLPLRVQPMTEELLKQQKLNS
notes: not shown: FLAG tag
binding result (EB1): no binding

B2: FLAG-tagged MMG8 fragment 390-1116 (other)
chain: HETTITQQSVSDSHLAELQEKIQQTEATNKILQEKLNEMSYELKCAQESSQKQDGTIQNLKETLKSRERETEELYQVIEGQNDTMAKLREMLHQSQLGQLHSSEGTSPAQQQVALLDLQSALFCSQLEIQKLQRVVRQKERQLADAKQCVQFVEAAAHESEQQKEASWKHNQELRKALQQLQEELQNKSQQLRAWEAEKYNEIRTQEQNIQHLNHSLSHKEQLLQEFRELLQYRDNSDKTLEANEMLLEKLRQRIHDKAVALERAIDEKFSALEEKEKELRQLRLAVRERDHDLERLRDVLSSNEATMQSMESLLRAKGLEVEQLSTTCQNLQWLKEEMETKFSRWQKEQESIIQQLQTSLHDRNKEVEDLSATLLCKLGPGQSEIAEELCQRLQRKERMLQDLLSDRNKQVLEHEMEIQGLLQSVSTREQESQAAAEKLVQALMERNSELQALRQYLGGRDSLMSQAPISNQQAEVTPTGRLGKQTDQGSMQIPSRDDSTSLTAKEDVSIPRSTLGDLDTVAGLEKELSNAKEELELMAKKERESQMELSALQSMMAVQEEELQVQAADMESLTRNIQIKEDLIKDLQMQLVDPEDIPAMERLTQEVLLLREKVASVESQGQEISGNRRQQLLLMLEGLVDERSRLNEALQAERQLYSSLVKFHAHPESSERDRTLQVELEGAQVLRSRLEEVLGRSLERLNRLETLAAIGGGELESVRIHHKHAY
notes: not shown: FLAG tag
binding result (AKAP450): no binding

B3: FLAG-tagged full-length MMG8(L311A/P312A) (other)
chain: MKEICRICARELCGNQRRWIFHTASKLNLQVLLSHVLGKDVPRDGKAEFACSKCAFMLDRIYRFDTVIARIEALSIERLQKLLLEKDRLKFCIASMYRKNNDDSGAEIKAGNGTVDMSVLPDARYSALLQEDFAYSGFECWVENEDQIQEPHSCHGSEGPGNRPRRCRGCAALRVADSDYEAICKVPRKVARSISCGPSSRWSTSICTEEPALSEVGPPDLASTKVPPDGESMEEETPGSSVESLDASVQASPPQQKDEETERSAKELGKCDCCSDDQAPQHGCNHKLELALSMIKGLDYKPIQSPRGSRAAIPVKSSLPGAKPGPSMTDGVSSGFLNRSLKPLYKTPVSYPLELSDLQELWDDLCEDYLPLRVQPMTEELLKQQKLNSHETTITQQSVSDSHLAELQEKIQQTEATNKILQEKLNEMSYELKCAQESSQKQDGTIQNLKETLKSRERETEELYQVIEGQNDTMAKLREMLHQSQLGQLHSSEGTSPAQQQVALLDLQSALFCSQLEIQKLQRVVRQKERQLADAKQCVQFVEAAAHESEQQKEASWKHNQELRKALQQLQEELQNKSQQLRAWEAEKYNEIRTQEQNIQHLNHSLSHKEQLLQEFRELLQYRDNSDKTLEANEMLLEKLRQRIHDKAVALERAIDEKFSALEEKEKELRQLRLAVRERDHDLERLRDVLSSNEATMQSMESLLRAKGLEVEQLSTTCQNLQWLKEEMETKFSRWQKEQESIIQQLQTSLHDRNKEVEDLSATLLCKLGPGQSEIAEELCQRLQRKERMLQDLLSDRNKQVLEHEMEIQGLLQSVSTREQESQAAAEKLVQALMERNSELQALRQYLGGRDSLMSQAPISNQQAEVTPTGRLGKQTDQGSMQIPSRDDSTSLTAKEDVSIPRSTLGDLDTVAGLEKELSNAKEELELMAKKERESQMELSALQSMMAVQEEELQVQAADMESLTRNIQIKEDLIKDLQMQLVDPEDIPAMERLTQEVLLLREKVASVESQGQEISGNRRQQLLLMLEGLVDERSRLNEALQAERQLYSSLVKFHAHPESSERDRTLQVELEGAQVLRSRLEEVLGRSLERLNRLETLAAIGGGELESVRIHHKHAY
notes: also called L311A/P312A mutant; not shown: FLAG tag
binding result (EB1): no binding
binding result (GFP-EB3): no binding

From US20130230532A1 (HONG KONG UNIVERSITY OF SCIENCE AND TECHNOLOGY, published 2013)
